Test results as given in the Human Domainome abundance scans (Beltran et al. 2025).
± gives the uncertainty stated by the source.

B1: 3'-5' exoribonuclease 1, residues 65 to 114; numbered along this chain, Q8IV48 (parent)
chain: VYKEIAITNGCINRMSKEELRAKLSEFKLETRGVKDVLKKRLKNYYKKQK

Variants of: B1
Test: abundance fitness (aPCA) (normalised: wild type 0, dead -1); higher = more abundant; growth selection in yeast, the domain comes from the species named
Details: Homo sapiens

Question: Which abundance fitness does the source give for VYTEIAITNGCINRMSKEELRAKLSEFKLETRGVKDVLKKRLKNYYKKQK here?
Answer: The abundance fitness was -0.081 ± 0.046.

Question: For VYSEIAITNGCINRMSKEELRAKLSEFKLETRGVKDVLKKRLKNYYKKQK, which abundance fitness is on record?
Answer: Its abundance fitness is -0.06 ± 0.039.

Question: With VYNEIAITNGCINRMSKEELRAKLSEFKLETRGVKDVLKKRLKNYYKKQK as the variant, how does the abundance fitness read?
Answer: The abundance fitness was 0.058 ± 0.07.

Question: With VYMEIAITNGCINRMSKEELRAKLSEFKLETRGVKDVLKKRLKNYYKKQK as the variant, how does the abundance fitness read?
Answer: Its abundance fitness is -0.287 ± 0.049.

Question: Which abundance fitness does the source give for VYDEIAITNGCINRMSKEELRAKLSEFKLETRGVKDVLKKRLKNYYKKQK here?
Answer: The abundance fitness was -0.192 ± 0.072.

Question: For VYAEIAITNGCINRMSKEELRAKLSEFKLETRGVKDVLKKRLKNYYKKQK, which abundance fitness is on record?
Answer: Its abundance fitness is -0.089 ± 0.043.

Question: With VYHEIAITNGCINRMSKEELRAKLSEFKLETRGVKDVLKKRLKNYYKKQK as the variant, how does the abundance fitness read?
Answer: The abundance fitness was -0.055 ± 0.064.

Question: Which abundance fitness does the source give for VYLEIAITNGCINRMSKEELRAKLSEFKLETRGVKDVLKKRLKNYYKKQK here?
Answer: The abundance fitness was -0.331 ± 0.042.

Question: With VYEEIAITNGCINRMSKEELRAKLSEFKLETRGVKDVLKKRLKNYYKKQK as the variant, how does the abundance fitness read?
Answer: The abundance fitness was 0.012 ± 0.064.

Question: Which abundance fitness does the source give for VYQEIAITNGCINRMSKEELRAKLSEFKLETRGVKDVLKKRLKNYYKKQK here?
Answer: The abundance fitness was -0.035 ± 0.061.

Question: For VYVEIAITNGCINRMSKEELRAKLSEFKLETRGVKDVLKKRLKNYYKKQK, which abundance fitness is on record?
Answer: The abundance fitness was -0.294 ± 0.044.

Question: Which abundance fitness does the source give for VYYEIAITNGCINRMSKEELRAKLSEFKLETRGVKDVLKKRLKNYYKKQK here?
Answer: The abundance fitness was -0.251 ± 0.08.

Question: For VYCEIAITNGCINRMSKEELRAKLSEFKLETRGVKDVLKKRLKNYYKKQK, which abundance fitness is on record?
Answer: The abundance fitness was -0.145 ± 0.057.

Question: With VYIEIAITNGCINRMSKEELRAKLSEFKLETRGVKDVLKKRLKNYYKKQK as the variant, how does the abundance fitness read?
Answer: Its abundance fitness is -0.336 ± 0.06.

Question: Which abundance fitness does the source give for VYREIAITNGCINRMSKEELRAKLSEFKLETRGVKDVLKKRLKNYYKKQK here?
Answer: The abundance fitness was -0.131 ± 0.035.

Question: With VYWEIAITNGCINRMSKEELRAKLSEFKLETRGVKDVLKKRLKNYYKKQK as the variant, how does the abundance fitness read?
Answer: The abundance fitness was -0.509 ± 0.052.

Question: For VYGEIAITNGCINRMSKEELRAKLSEFKLETRGVKDVLKKRLKNYYKKQK, which abundance fitness is on record?
Answer: Its abundance fitness is -0.05 ± 0.041.

Question: For VYFEIAITNGCINRMSKEELRAKLSEFKLETRGVKDVLKKRLKNYYKKQK, which abundance fitness is on record?
Answer: Its abundance fitness is -0.34 ± 0.061.

Question: Which abundance fitness does the source give for VKKEIAITNGCINRMSKEELRAKLSEFKLETRGVKDVLKKRLKNYYKKQK here?
Answer: Its abundance fitness is 0.041 ± 0.064.

Question: For VVKEIAITNGCINRMSKEELRAKLSEFKLETRGVKDVLKKRLKNYYKKQK, which abundance fitness is on record?
Answer: The abundance fitness was 0.021 ± 0.046.

Question: For VAKEIAITNGCINRMSKEELRAKLSEFKLETRGVKDVLKKRLKNYYKKQK, which abundance fitness is on record?
Answer: The abundance fitness was 0.006 ± 0.052.

Question: Which abundance fitness does the source give for VDKEIAITNGCINRMSKEELRAKLSEFKLETRGVKDVLKKRLKNYYKKQK here?
Answer: The abundance fitness was 0.1 ± 0.07.

Question: Which abundance fitness does the source give for VLKEIAITNGCINRMSKEELRAKLSEFKLETRGVKDVLKKRLKNYYKKQK here?
Answer: Its abundance fitness is -0.052 ± 0.043.

Question: For VRKEIAITNGCINRMSKEELRAKLSEFKLETRGVKDVLKKRLKNYYKKQK, which abundance fitness is on record?
Answer: The abundance fitness was -0.072 ± 0.045.

Question: With VQKEIAITNGCINRMSKEELRAKLSEFKLETRGVKDVLKKRLKNYYKKQK as the variant, how does the abundance fitness read?
Answer: The abundance fitness was 0.076 ± 0.076.

Question: Which abundance fitness does the source give for VCKEIAITNGCINRMSKEELRAKLSEFKLETRGVKDVLKKRLKNYYKKQK here?
Answer: Its abundance fitness is 0.013 ± 0.062.

Question: Which abundance fitness does the source give for VIKEIAITNGCINRMSKEELRAKLSEFKLETRGVKDVLKKRLKNYYKKQK here?
Answer: The abundance fitness was 0.004 ± 0.052.

Question: Which abundance fitness does the source give for VMKEIAITNGCINRMSKEELRAKLSEFKLETRGVKDVLKKRLKNYYKKQK here?
Answer: Its abundance fitness is 0.012 ± 0.065.

Question: Which abundance fitness does the source give for VSKEIAITNGCINRMSKEELRAKLSEFKLETRGVKDVLKKRLKNYYKKQK here?
Answer: The abundance fitness was 0.028 ± 0.044.

Question: With VPKEIAITNGCINRMSKEELRAKLSEFKLETRGVKDVLKKRLKNYYKKQK as the variant, how does the abundance fitness read?
Answer: Its abundance fitness is 0.046 ± 0.061.

Question: With VWKEIAITNGCINRMSKEELRAKLSEFKLETRGVKDVLKKRLKNYYKKQK as the variant, how does the abundance fitness read?
Answer: The abundance fitness was -0.069 ± 0.083.

Question: For VNKEIAITNGCINRMSKEELRAKLSEFKLETRGVKDVLKKRLKNYYKKQK, which abundance fitness is on record?
Answer: Its abundance fitness is 0.067 ± 0.062.

Question: For VEKEIAITNGCINRMSKEELRAKLSEFKLETRGVKDVLKKRLKNYYKKQK, which abundance fitness is on record?
Answer: Its abundance fitness is 0.048 ± 0.075.

Question: With VHKEIAITNGCINRMSKEELRAKLSEFKLETRGVKDVLKKRLKNYYKKQK as the variant, how does the abundance fitness read?
Answer: Its abundance fitness is 0.01 ± 0.061.

Question: For VGKEIAITNGCINRMSKEELRAKLSEFKLETRGVKDVLKKRLKNYYKKQK, which abundance fitness is on record?
Answer: Its abundance fitness is 0.069 ± 0.047.

Question: For VFKEIAITNGCINRMSKEELRAKLSEFKLETRGVKDVLKKRLKNYYKKQK, which abundance fitness is on record?
Answer: The abundance fitness was -0.053 ± 0.054.

Question: For VYKAIAITNGCINRMSKEELRAKLSEFKLETRGVKDVLKKRLKNYYKKQK, which abundance fitness is on record?
Answer: Its abundance fitness is -0.113 ± 0.038.

Question: With YYKEIAITNGCINRMSKEELRAKLSEFKLETRGVKDVLKKRLKNYYKKQK as the variant, how does the abundance fitness read?
Answer: Its abundance fitness is -0.083 ± 0.12.

Question: Which abundance fitness does the source give for MYKEIAITNGCINRMSKEELRAKLSEFKLETRGVKDVLKKRLKNYYKKQK here?
Answer: The abundance fitness was -0.065 ± 0.081.

Question: Which abundance fitness does the source give for QYKEIAITNGCINRMSKEELRAKLSEFKLETRGVKDVLKKRLKNYYKKQK here?
Answer: The abundance fitness was -0.369 ± 0.15.

Question: For DYKEIAITNGCINRMSKEELRAKLSEFKLETRGVKDVLKKRLKNYYKKQK, which abundance fitness is on record?
Answer: Its abundance fitness is -0.078 ± 0.054.

Question: With NYKEIAITNGCINRMSKEELRAKLSEFKLETRGVKDVLKKRLKNYYKKQK as the variant, how does the abundance fitness read?
Answer: The abundance fitness was 0.093 ± 0.15.

Question: Which abundance fitness does the source give for FYKEIAITNGCINRMSKEELRAKLSEFKLETRGVKDVLKKRLKNYYKKQK here?
Answer: Its abundance fitness is -0.104 ± 0.058.
